The record followed here is CN115925884A.

A word on the Kd: it is a measure of binding affinity in units of concentration.

This test has as its target EBV gB重组蛋白 (recombinant EB virus gB protein with C-terminal 6xHis tag) (EB病毒 (Epstein-Barr virus)) (UniProt P0C762). Nature of the test: BLI, biotinylated gB on SA biosensor, control antibody in solution.

For the substance “对照抗体AMMO5 (anti-EBV gB recombinant antibody, clone AMMO5)”, the Kd came out at 0.302 nM.
